Each block holds one binder with its values, some of them ahead of it.
Molecular target: T1, Erythrina cristagalli lectin (Erythrina cristagalli, UniProt P83410 1-239)
T1 construct: also called ECL
T1 sequence (looked up): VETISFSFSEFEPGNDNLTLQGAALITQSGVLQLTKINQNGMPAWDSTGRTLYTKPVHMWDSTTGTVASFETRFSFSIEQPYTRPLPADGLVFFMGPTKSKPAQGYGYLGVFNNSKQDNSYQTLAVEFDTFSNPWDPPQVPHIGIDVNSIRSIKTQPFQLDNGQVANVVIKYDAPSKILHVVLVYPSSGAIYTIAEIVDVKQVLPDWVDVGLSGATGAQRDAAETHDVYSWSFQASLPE
Experiment: SPR; BiacoreX; biotinylated TTL sample on streptavidin chip loaded to one third; at least five ECL concentrations (Gal-0 once at 100 µM ECL); equilibrium binding, Langmuir isotherm fit; KDs determined twice
Conditions: both partners purified

- Kd: 70 µM
B1: Biotinylated thermophilic lipase from Thermoanaerobacter thermohydrosulfuricus with azidohomoalanine, carrying 1-2 galactose units (Gal-1) (enzyme)
chain: SQKAVEITYNGKTLRGMMHLPDDVKGKVPMVIMFHGFTGNKVESHFIFVKMSRALEKVGIGSVRFDFYGSGESDGDFSEMTFSSELEDARQILKFVKEQPTTDPERIGLLGLSMGGAIAGIVAREYKDEIKALVLWAPAFNMPELIMHESVKQYGAIMEQLGFVDIGGHKLSKDFVEDISKLNIFELSKGYDKKVLIVHGTNDEAVEYKVSDRILKEVYGDNATRVTIENADHTFKSLEWEKKAIEESVEFFKKELLKG
modifications: all Met replaced by azidohomoalanine (Aha), nine Aha residues; N-terminal Met/Aha excised; N-terminal Ser (Ser2) oxidised with NaIO4 to the aldehyde and joined to biotin hydroxylamine 1 by oxime ligation; 1-2 Aha residues joined to butynyl galactose 2 by CuAAC (positions not given)

- Kd: 60 µM
B2: Biotinylated thermophilic lipase from Thermoanaerobacter thermohydrosulfuricus with azidohomoalanine, carrying 3-4 galactose units (Gal-3) (enzyme)
chain: B1 chain
modifications: all Met replaced by azidohomoalanine (Aha), nine Aha residues; N-terminal Met/Aha excised; N-terminal Ser (Ser2) oxidised with NaIO4 to the aldehyde and joined to biotin hydroxylamine 1 by oxime ligation; 3-4 Aha residues joined to butynyl galactose 2 by CuAAC (positions not given; two found by MS/MS, Table S5)

Reference: publication PMC4464295, “Orthogonal dual-modification of proteins for the engineering of multivalent protein scaffolds” (Beilstein Journal of Organic Chemistry, 2015)
